Test results reported in publication PMC5075775.

Each sequence was assayed on monoclonal anti-DNA antibody ED-10 (assay: SPR). Details: ka 1.009e8, kd 7.860e-1; text also claims higher binding of SEQ4; LNA at 4, 10, 13, 19 of strand 1 by plus signs (Table 1 lists 4, 10, 14, 19); SPR: Biacore X100, SA chip, immobilisation in HBS-EP+ (0.1 M HEPES, 1.5 M NaCl, 30 mM EDTA, 0.5% P20), 37 C; ELISA: antigens coated in PBS, diluent PBS ….

In the case of “TCCTCTCTTTCTCTTTCTCTT (double strand) [SEQ4 biotinylated LNA/DNA duplex (SPR)]”, the Kd is reported as 779 nM.

Same assay, conditions: ka 3.341e3, kd 3.531e-4; SPR: Biacore X100, SA chip, immobilisation in HBS-EP+ (0.1 M HEPES, 1.5 M NaCl, 30 mM EDTA, 0.5% P20), 37 C; ELISA: antigens coated in PBS, diluent PBS …

In the case of “TCCTCTCTTTCTCTTTCTCTT (double strand) [SEQ5 biotinylated duplex (SPR)]”, the Kd is reported as 106 nM.

These sequences were tested on monoclonal anti-dsDNA antibody HYB 331-01, clone 35I9 (assay: ELISA). Details: LNA at 1, 4 of strand 1; SPR: Biacore X100, SA chip, immobilisation in HBS-EP+ (0.1 M HEPES, 1.5 M NaCl, 30 mM EDTA, 0.5% P20), 37 C; ELISA: antigens coated in PBS, diluent PBS ….

“TCCTCTCTTTCTCTTTCTCTT (double strand) [D20]” showed a binding signal of 0.89 A450.

Same assay, conditions: LNA at 4, 13, 19 of strand 1; SPR: Biacore X100, SA chip, immobilisation in HBS-EP+ (0.1 M HEPES, 1.5 M NaCl, 30 mM EDTA, 0.5% P20), 37 C; ELISA: antigens coated in PBS, diluent PBS …

In the case of “TCCTCTCTTTCTCTTTCTCTT (double strand) [D19 (LNA pattern of SEQ1)]”, the binding signal is reported as 1.12 A450.

Same assay, conditions: LNA at 4 of strand 1; SPR: Biacore X100, SA chip, immobilisation in HBS-EP+ (0.1 M HEPES, 1.5 M NaCl, 30 mM EDTA, 0.5% P20), 37 C; ELISA: antigens coated in PBS, diluent PBS …

“TCCTCTCTTTCTCTTTCTCTT (double strand) [D22]” was tested, and the binding signal was 0.56 A450.

Same assay, conditions: LNA at 11, 13 of strand 1; SPR: Biacore X100, SA chip, immobilisation in HBS-EP+ (0.1 M HEPES, 1.5 M NaCl, 30 mM EDTA, 0.5% P20), 37 C; ELISA: antigens coated in PBS, diluent PBS …

“TCCTCTCTTTCTCTTTCTCTT (double strand) [D21]” was tested, and the binding signal was 0.77 A450.

Same assay, conditions: SPR: Biacore X100, SA chip, immobilisation in HBS-EP+ (0.1 M HEPES, 1.5 M NaCl, 30 mM EDTA, 0.5% P20), 37 C; ELISA: antigens coated in PBS, diluent PBS …

Going from “AGGGAGGGGGAGAGGGAGAGG (double strand) [D11 (AG)]” to “ATTTATTTTT (double strand) [D16 (AT 10mer)]”, the binding signal falls from 0.78 A450 to 0.76 A450.

Going from “ATTTATTTTTATATTTATATT (double strand) [D8 (AT, SEQ6)]” to “ATTTATTTTTATATTTATATTATTTATTTTTATATTTATATTATTTATTTTTATATTTATATT (double strand) [D18 (AT 63mer)]”, the binding signal rises from 1.27 A450 to 1.44 A450.

Going from “CCACACCCACACCCCCACCCA (double strand) [D12 (CA)]” to “GGAGAGGGAGAGGGGGAGGGA (double strand) [D13 (GA)]”, the binding signal rises from 0.78 A450 to 0.89 A450.

Going from “TAATATATTTATATTTATATT (double strand) [D2 (TA)]” to “TCCTCTCTTT (double strand) [D15 (TC 10mer)]”, the binding signal falls from 1.11 A450 to 0.9 A450.

First: TCCTCTCTTTCTCTTTCTCTT (double strand) [D1 (SEQ5)]
Second: TCCTCTCTTTCTCTTTCTCTTTCCTCTCTTTCTCTTTCTCTTTCCTCTCTTTCTCTTTCTCTT (double strand) [D17 (TC 63mer)]
The binding signal of the first is lower: 1.41 A450 for the first, 1.5 A450 for the second.

Going from “TGAACTCTATGTCTGTATCAT (double strand) [D14 (ATCG mixmer, SEQ7)]” to “TGGTGTGTTTGTGTTTGTGTT (double strand) [D3 (TG)]”, the binding signal falls from 1.55 A450 to 1.13 A450.

Compared with “TTATATTTATATTTATATAAT (double strand) [D6 (AT)]”, “TTCTCTTTCTCTTTCTCTCCT (double strand) [D5 (CT)]” is lower in binding signal: 1 A450 for the first, 0.98 A450 for the second.

Sequence “TTGTGTTTGTGTTTGTGTGGT (double strand) [D7 (GT)]” has a binding signal of 1.87 A450.
